Assay results: US6570069B1, “Nucleic acids encoding plant inhibitors of apoptosis and transgenic cells and plants expressing them” (priority 2000, dated 2003)
Entries after “also recorded” stand apart in the source; their conditions may differ.

How the values were obtained:
[1] = system: recombinant active caspase-9; test: Enzyme inhibition assay with recombinant active caspase-9 and Ac-LEHD-AFC; format: biochemical, mammalian; details: Ac-LEHD-AFC substrate
Procedure: pGEX4T-1-SfIAP and pGEX4T-1 -CpIAP plasmids were introduced into E. coli strain BL21 (DE3) containing the plasmid pT-Trx. GST fusion proteins were obtained by induction with 0.05 mM IPTG at 25° C. for 8 hours, then purified using glutathione-Sepharose, essentially as described (Deveraux, Q., Welsh, K. & Reed, J. Methods of Enzymology in press). Caspases-3, and -7, containing C-terminal His6-tags, and caspase-8 containing an N-terminal His6-tag were purified as described previously (Stennicke, H. R. & Salvesen, G. S. (I1997) J. Biol. Chem. 272, 25719-25723; Stennicke, H., et al., (1998) J. Biol. Chem. 273, 27084-27090; Stennicke, H., et al., (1999) J. Biol. Chem. 274, 8359-8362). Caspase-9 lacking the CARD domain (ΔCARD-caspase-9) was constructed by truncating the cDNA and introducing a start codon substituting Val139. The resulting cDNA was subcloned into pET-23b and expressed in BL21 (DE3), yielding fully processed enzyme when cells were induced using 0.2 mM IPTG at OD600=0.6 for 4 hrs (Stennicke, H., Deveraux, Q., Humike, E., Reed, J., Dixit, V. & Salvesen, G. (1999) J. Biol. Chem. 274, 8359-8362). All expressed caspases were purified by Ni-chelation affinity-chromatography, as described (Stennicke, H., et al., (1999) J. Biol. Chem. 274, 8359-8362; Stennicke, H. R. & Salvesen, G. S. (1997) J. Biol. Chem. 272, 25719-25723; Stennicke, H., et al., (1998) supra). Concentrations of purified enzymes were determined from absorbance at 280 nm based on the molar absorption coefficients: caspase-3 (A280=26,000M−1 cm−1), caspase-7 (A280=24,500 M−1 cm−1), caspase-9 (A280=30,010M−1 cm−1).
Caspase activity was assayed by release of 7-amino-4-trifluoromethyl-coumarin (AFC) from Ac-DEVD or Ac-LEHD-containing synthetic peptides (Calbiochem) using continuous-reading instuments as described (Quan, L. T. et al., (1995) J. Biol. Chem. 270:10377-10379).
To directly examine the possibility that SfIAP and CpLAP inhibit caspase-9, enzyme inhibition assays were performed using bacteria-produced recombinant active caspase-9, recombinant-purified SfIAP and CpIAP, and Ac-LEHD-AFC as a caspase-9 substrate.

[2] = system: apoptosis induced by AcMNPV p35 mutant virus in Sf-21 cells; test: Rescue of AcMNPV p35-deleted virus in Sf-21 cells (occlusion body formation); format: cell-based, Spodoptera frugiperda; details: plasmid co-transfected with AcMNPV p35 mutant viral DNA into Sf-21 cells; observed 72 hrs post-transfection
Procedure: Insect Sf-21 cells were maintained at 27° C. in Excell 401 media (JHR Bioscience) supplemented with 2.5% fetal bovine serum. vP35del, containing a deletion in the p35 gene, was propagated in TN-368 cells (Clem, R. J., et al., (1991) Science 254, 1388-1390). Plasmids encoding full-length or deletion mutants of SfIAP (1 μg) were co-transfected with 1 μg vP35del viral DNA into Sf-21 cells using Lipofectin from Gibco. Occlusion body formation was observed under light microscopy 3 days post-transfection.
SfIAP was tested to see if it also complements. p35-deficiency, preventing apoptosis by this mutant virus, thereby allowing its replication in insect cells. Plasmids containing full-length SfIAP or fragments of SfIAP comprising the two BIRs or the RING domain were co-transfected with AcMNPV p35 mutant viral DNA into Sf-21 cells. Cells were observed 72 hrs post-transfection. […] Thus, analogous to CpIAP and OpIAP, BIR and RING domains of SfIAP are required in combination for inhibition of apoptosis induced by AcMNPV p35 mutant virus.

Molecule	inhibition of recombinant active caspase-9 [1]	molar-excess relative to caspase-9 which produced ~50% inhibition of protease activity [1]	complementation of p35 deficiency (rescue of mutant virus replication, occlusion body formation) [2]
CpIAP: baculoviral (CpGV) inhibitor of apoptosis protein; complete ORF expressed myc-tagged or as GST-fusion (protein, left off: a dimerising Fc or GST, complete ORF expressed myc-tagged or as GST-fusion) MSDLRLEEVRLNTFEKWPVSFLSPETMAKNGFYYLGRSDEVRCAFCKVEIMRWKEGEDPAADHKKWAPQCPFVKGIDVCGSIVTTNNIQNTTTHDTIIGPAHPKYAHEAARVKSFHNWPRCMKQRPEQMADAGFFYTGYGDNTKCFYCDGGLKDWEPEDVPWEQHVRWFDRCAYVQLVKGRDYVQKVITEACVLPGENTTVSTAAPVSEPIPETKIEKEPQVEDSKLCKICYVEECIVCFVPCGHVVACAKCALSVDKCPMCRKIVTSVLKVYFS	inhibited recombinant active caspase-9 in a concentration-dependent manner; also recorded: direct inhibitors of mammalian caspase-9	12 fold	
SfIAP: cellular IAP cloned from Spodoptera frugiperda, protein of 377 amino acids (SEQ ID NO:3); GST-fusion when recombinant (protein, listed as Spodoptera frugiperda, GST fusion when recombinant; fall armyworm inhibitor of apoptosis protein (SfIAP)) MWSCSLPCWNTKKSGLQMDITKVASNGSSSTLTLFKSGSLEAKIRPLAPLMLPTPSYDSNAGSPSLSPSTPCSSSSFSIDKTDNHDTFGFSADTVDMRKEDERMKTFEKWPVSFLSGEQLARNGFYYLGRRDEARCAFCKVEIMRWVEGDDPAKDHQRWAPQCPFVRKLNGTAAADTGSSGQDECGARAAPSGTSPPRMAGPVHPRYASEAARLRSFKDWPRCMRQKPEELAEAGFFYTGQGDKTKCFYCDGGLKDWENHDVPWEQHARWFDRCAYVQLVKGREYVQKVISEACEVSASEAERDVAPARTAEPSPPAEAPENSVDDSKLCKICYAEERNVCFVPCGHVVACAKCALAADKCPMCRRTFQNAVRLYFS	inhibited recombinant active caspase-9 in a concentration-dependent manner; also recorded: direct inhibitors of mammalian caspase-9	8 fold	complemented p35 deficiency
